From patent US12227551B2, “Membrane bound IL12 compositions and methods for tunable regulation” (Obsidian Therapeutics, Inc., priority 2018, dated 2025)

Tests used:
[1] = tested on: phospho-STAT4 in GFP+ T cells; assay: Bystander effect: phospho-STAT4 in GFP+ T cells incubated 1 hour with co-culture supernatants, flow cytometry (Example 6; Table 20); format: cell-based, human
Description: Membrane bound IL12 (mbIL12) was expressed in tandem with a CD19-CAR and tested in primary human T cells. On day 0, primary human T cells were stimulated with Dynabeads (T-expander CD3/CD28) at a 3:1 bead:cell ratio in media containing 10% fetal bovine serum (FBS). The next day, lentivirus with mbIL12 in tandem with a CD19-CAR construct was added in the presence of reduced serum (5% FBS). After 7 days of T cell expansion, increasing numbers of CAR+ T cells were cocultured with 10,000 GFP+, CAR-negative T cells. At the end of 1 hour of co-culture, the phospho-STAT4 levels within the GFP+ T cells were quantitated by flow cytometry using reagents and methods from BD. To determine the relative amount of IL12 activity that had accumulated in the T cell supernatants during the hour-long co-culture, cell supernatants from the co-culture were transferred to a new plate of GFP+ T cells and incubated for 1 hour. Phospho-STAT4 levels were measured in the GFP+ T cells incubated with the supernatants from the original co-culture. The transactivation ([…] geometric mean fluorescence (MFI) on GFP+ cells in co-culture) and the bystander effect (pSTAT4 geometric MFI on GFP+ T cells in 1 hour supernatants) for a CAR-IL12+:GFP+ ratio of 64 are shown in Table 20.
The transactivation (pSTAT4 geometric mean fluorescence (MFI) on GFP+ cells in co-culture) and the bystander effect (pSTAT4 geometric MFI on GFP+ T cells in 1 hour supernatants) for the constructs at different ratios are summarized below. For OT-001407, when (a) the CAR-IL12+:GFP+ ratio was 32, the transactivation was 1711 and the bystander effect was −1680, (b) the CAR-IL12+:GFP+ ratio was 16, the transactivation was 1768 and the bystander effect was −1632, (c) the CAR-IL12+:GFP+ ratio was 8, the transactivation was 1433 and the bystander effect was −1603, (d) the CAR-IL12+:GFP+ ratio was 4, the transactivation was 1195 and the bystander effect was −1860, and (e) the CAR-IL12+:GFP+ ratio was 2, the transactivation was 1101 and the bystander effect was −1800. For OT-001356, when (a) the CAR-IL12+:GFP+ ratio was 73.9, the transactivation was 6452 and the bystander effect was −2617, (b) the CAR-IL12+:GFP+ ratio was 37, the transactivation was 6935 and the bystander effect was −1404, (c) the CAR-IL12+:GFP+ ratio was 18.5, the transactivation was 6417 and the bystander effect was −226, (d) the CAR-IL12+:GFP+ ratio was 9.2, the transactivation was 5568 and the bystander effect was −86, (e) the CAR-IL12+:GFP+ ratio was 4.6, the transactivation was 4374 and the bystander effect was −518, and (f) the CAR-IL12+:GFP+ ratio was 2.3, the transactivation was 2839 and the bystander effect was −1093. For OT-001895, when (a) the CAR-IL12+:GFP+ ratio was 34.1, the transactivation was 7699 and the bystander effect was −3724, (b) the CAR-IL12+:GFP+ ratio was 17.1, the transactivation was 7718 and the bystander effect was −2996, (c) the CAR-IL12+:GFP+ ratio was 8.5, the transactivation was 8200 and the bystander effect was −1178, (d) the CAR-IL12+:GFP+ ratio was 4.3, the transactivation was 7172 and the bystander effect was −277, (e) the CAR-IL12+:GFP+ ratio was 2.1, the transactivation was 6095 and the bystander effect was −238, and (f) the CAR-IL12+:GFP+ ratio was 1.1, the transactivation was 4498 and the bystander effect was −136. For OT-002011, when (a) the CAR-IL12+:GFP+ ratio was 75.8, the transactivation was 8086 and the bystander effect was −3531, (b) the CAR-IL12+:GFP+ ratio was 37.9, the transactivation was 8031 and the bystander effect was −2884, (c) the CAR-IL12+:GFP+ ratio was 18.9, the transactivation was 8324 and the bystander effect was −1376, (d) the CAR-IL12+:GFP+ ratio was 9.5, the transactivation was 7765 and the bystander effect was −1133, (e) the CAR-IL12+:GFP+ ratio was 4.7, the transactivation was 6682 and the bystander effect was −566, and (f) the CAR-IL12+:GFP+ ratio was 2.4, the transactivation was 5190 and the bystander effect was −642. […]

CD19+ Nalm6 tumors = assay: Nalm6-Luc tumor burden by BLI, mean total flux, NSG mice, B7.1 TM mbIL12 constructs (Example 10; Table 34); format: in vivo
Description: To test in vivo anti-tumor activity, experiments were performed in NSG mice. Nalm6 cells were transfected with Redifect Red-Fluc (Perkin Elmer) under selection using Puromycin for ˜2 months to generate a line that stably expresses the luciferase reporter; thereafter named Nalm6-Luc. Ten days before tumor implantation, Nalm6-Luc cells were thawed and cultured in puromycin-containing media. On day 0, cells were counted, resuspended in PBS and injected into NSG mice via tail vein. On day 6, mice were imaged for bioluminescent intensity (BLI) and sorted into groups based on their tumor size ensure that all groups had the same sized tumors. Human T cells were transduced with one of the following constructs as shown in the study design in Table 33:
Next, holding total CAR+ T cell dose constant at 1 million cells per animal, transduced T cells were intravenously infused into mice on day 7. Tumors were monitored in mice using BLI and the mean of the Total Flux (photons/second) was calculated for each group as an indicator of tumor burden (Table 34). In order to track the trans effect of IL12 expressing CART cells on that lack expression of IL12, 10 million GFP+ T cells (negative for IL12) were co-infused with the IL12-expressing CAR+ T cells, and peripheral blood draws taken over time to evaluate the effect of IL12 on phenotypic changes in GFP+ T cells by flow cytometry analysis.

B1: OT-001356: CD19 CAR; stop; IRES; secreted IL12 (p40 23-328; (G4S)3; p35 57-253); nucleic acid SEQ ID NO: 482 (protein)
chain: IWELKKDVYVVELDWYPDAPGEMVVLTCDTPEEDGITWTLDQSSEVLGSGKTLTIQVKEFGDAGQYTCHKGGEVLSHSLLLLHKKEDGIWSTDILKDQKEPKNKTFLRCEAKNYSGRFTCWWLTTISTDLTFSVKSSRGSSDPQGVTCGAATLSAERVRGDNKEYEYSVECQEDSACPAAEESLPIEVMVDAVHKLKYENYTSSFFIRDIIKPDPPKNLQLKPLKNSRQVEVSWEYPDTWSTPHSYFSLTFCVQVQGKSKREKKDRVFTDKTSATVICRKNASISVRAQDRYYSSSWSEWASVPCSGGGGSGGGGSGGGGSRNLPVATPDPGMFPCLHHSQNLLRAVSNMLQKARQTLEFYPCTSEEIDHEDITKDKTSTVEACLPLELTKNESCLNSRETSFITNGSCLASRKTSFMMALCLSSIYEDLKMYQVEFKTMNAKLLMDPKRQIFLDQNMLAVIDELMQALNFNSETVPQKSSLEEPDFYKTKIKLCILLHAFRIRAVTIDRVMSYLNASGS
bystander effect (pSTAT4 geometric MFI on GFP+ T cells in 1 hour supernatants) ([1]; CAR-IL12+:GFP+ ratio 2.3): −1093 | bystander effect (pSTAT4 geometric MFI on GFP+ T cells in 1 hour supernatants) ([1]; CAR-IL12+:GFP+ ratio 4.6): −518 | bystander effect (pSTAT4 geometric MFI on GFP+ T cells in 1 hour supernatants) ([1]; CAR-IL12+:GFP+ ratio 9.2): −86 | bystander effect (pSTAT4 geometric MFI on GFP+ T cells in 1 hour supernatants) ([1]; CAR-IL12+:GFP+ ratio 18.5): −226 | bystander effect (pSTAT4 geometric MFI on GFP+ T cells in 1 hour supernatants) ([1]; CAR-IL12+:GFP+ ratio 37): −1404 | bystander effect (pSTAT4 geometric MFI on GFP+ T cells in 1 hour supernatants) ([1]; CAR-IL12+:GFP+ ratio 73.9): −2617 | Mean Total Flux (Nalm-6 Tumor Burdon) (CD19+ Nalm6 tumors; day 6 post tumor implant, day −1 post T cell transfer (before infusion), 1 million CAR+ T cells): 2667500 photons/second | Mean Total Flux (Nalm-6 Tumor Burdon) (CD19+ Nalm6 tumors; day 15 post tumor implant, day 8 post T cell transfer): 72220000 photons/second | Mean Total Flux (Nalm-6 Tumor Burdon) (CD19+ Nalm6 tumors; day 19 post tumor implant, day 12 post T cell transfer): 3141750 photons/second | Mean Total Flux (Nalm-6 Tumor Burdon) (CD19+ Nalm6 tumors; day 22 post tumor implant, day 15 post T cell transfer): 1001125 photons/second | Mean Total Flux (Nalm-6 Tumor Burdon) (CD19+ Nalm6 tumors; day 27 post tumor implant, day 20 post T cell transfer): 991750 photons/second | Mean Total Flux (Nalm-6 Tumor Burdon) (CD19+ Nalm6 tumors; day 30 post tumor implant, day 23 post T cell transfer): 797000 photons/second | Mean Total Flux (Nalm-6 Tumor Burdon) (CD19+ Nalm6 tumors; day 33 post tumor implant, day 26 post T cell transfer): 887000 photons/second | Mean Total Flux (Nalm-6 Tumor Burdon) (CD19+ Nalm6 tumors; day 36 post tumor implant, day 29 post T cell transfer): 627875 photons/second | Mean Total Flux (Nalm-6 Tumor Burdon) (CD19+ Nalm6 tumors; day 41 post tumor implant, day 34 post T cell transfer): 697500 photons/second
